Literature values, collected in publication PMC6214620.

Tested on: Lys53
Details: ferric; His-Fe-Lys converting to a water-bound, lysine-deligated state

## Truncated hemoglobin THB1 (Chlamydomonas reinhardtii)
  pKa: ~ 6.5
